The values below come from patent US20200223906A1 (Adimab, published 2020).

The target in test [1] is RSV F protein of subtype A (strain A2) on recombinant mKate-RSV virus (Respiratory syncytial virus subtype A …, UniProt P03420 26-574). Description: cell-based or functional assay.
Test [2] addresses RSV F protein of subtype B (18537) on recombinant mKate-RSV virus (Respiratory syncytial virus subtype B …, UniProt P13843 26-574). Description: cell-based or functional assay.
Test [3] deals with T1, RSV F subtype A, furin-cleaved ectodomain stabilized in the prefusion conformation (DS-Cav1) (Respiratory syncytial virus subtype A, UniProt P03420 26-524).
T1 construct: extracellular domain; Trimeric soluble antigen; also called Prefusion subtype A
Description: BLI, IgG on AHQ sensor, 100 nM antigen. (In BLI a coated tip is dipped into the sample, and binding shifts an interference pattern.)

Test [4] addresses T2, RSV F subtype B, furin-cleaved ectodomain stabilized in the prefusion conformation (DS-Cav1) (Respiratory syncytial virus subtype B).
T2 construct: extracellular domain; Trimeric soluble antigen; also called Prefusion subtype B
Description: BLI, IgG on AHQ sensor, 100 nM antigen.

Where a chain is given by its changes, count along the chain named.

B1: ADI-18883 (antibody, V domains shown)
VH: QVQLVQSGPEVKKPGSSVTVSCKASGGTFSNYGIAWVRQAPGQGLEWMGSTIPILGTASYRQSLKDRVTITADASTTTVYMEMTRLRTEDTAVYFCARVPESLVASNAYAVWGQGTVVTVSS
VL: DIQMTQSPSSVSASVGDRVTITCRASQDISTWLAWYQQRPGKAPKLLIYTASSLQSGVPSRFSGSGSGTEFTLTISSLQPEDFATYYCQQGTSFPFTFGPGTKLEIK
notes: full-length IgG from yeast
As usually defined, the Kd is the equilibrium constant for the complex coming apart. In the case of B1, the “Neut IC50 (µg/ml) subtype A” value in test [1] is 0.041 µg/mL. Besides, the “Neut IC50 (µg/ml) subtype B” value in test [2] is 0.05 µg/mL. The Kd in test [3] stood at 431 pM; in test [4] it was 566 pM.

B2: ADI-18936 (antibody, V domains shown)
VH: EVQLLESGAEVKKPGASVRVSCKASGYTFTDYFMNWVRQAPGGGLEWMGWVNPLSGATKYAQKFQGRVTMTTDTSITTGYLDLRSLRVDDTAIYFCASQSSPYTPGAMGVWGQGTTVTVSS
VL: DIQVTQSPSSLSASVGDRVTITCRASQSISGYLSWYQQKPGKAPNLLIYATSNLYSGVPSRFSGRDSGTDFTLTITSLQPEDFATYFCQLNSGALFTFGPGTKVEIK
notes: full-length IgG from yeast
In the case of B2, the “Neut IC50 (µg/ml) subtype A” value in test [1] was found to be 0.032 µg/mL. For the same molecule, the “Neut IC50 (µg/ml) subtype B” value in test [2] was 0.035 µg/mL. In addition, the Kd in test [3] was determined as 303 pM; in test [4], 298 pM.

B3: ADI-18937 (antibody, V domains shown)
VH: QVQLQESGPGLVKPSQTLSLTCTVSGPSISAGDYNWNWIRQAPGKGLEWVGYIDYRGLTHYNPSLKGRLSILMDRSANQFSLELNSVTAADTAVYYCARDVGVYSGYDVFHYYGMDVWGQGTTVTVSS
VL: ETTLTQSPVTLSLSPGERATLSCRASQYVRNNYLAWYQHKPGQAPRLLIYSASSRVTGTPDRFSGSGSGTDFTLTISRLEPEDFAVYYCQQYGGSPPVTFGPGTKVDIK
notes: full-length IgG from yeast; also called Antibody Number 290; Ab # 290
With B3, the “Neut IC50 (µg/ml) subtype A” value in test [1] amounted to 0.084 µg/mL. In addition, the “Neut IC50 (µg/ml) subtype B” value in test [2] was 0.508 µg/mL. Further, the values for the Kd in test [3] and in test [4] were 289 pM and 273 pM, respectively.

B4: ADI-18930 (antibody, V domains shown)
VH: QVQLVQSGAEVKKPGSSVKVSCKASGGTFSGYHISWVRQAPGQGLEWMGGIIHLFGTVNYAPKFQGRVTITADASTGTAYMELNSLMSEDTAVYYCARDAYEVWTGSYLPPFDYWGQGTLVTVSS
VL: EIVLTQSPGTLSLSPGERVTLSCRASQTVTSSYLAWYQQKPGQAPRLLIYGAFTRATDIPDRFSGSGSGTDFTLTISRLEPEDSAVYYCQQYGSSFLTFGGGTKVDIK
notes: full-length IgG from yeast
Take B4: the “Neut IC50 (µg/ml) subtype A” value in test [1] came to 0.013 µg/mL. In addition, the “Neut IC50 (µg/ml) subtype B” value in test [2] was determined as 0.051 µg/mL. In addition, the Kd in test [3] stood at 387 pM; in test [4], 372 pM.

B5: ADI-18882 (antibody, V domains shown)
VH: QVQLVQSGAEVKKPGSSVRVSCKASGGTFRGYGLSWVRQAPGQGLEWMGGITHLFGTVSYAPKFQGRLTITADASTGTAYMELSSLISEDTAVYFCARDAYEVWTGSYLPPFDYWGQGTMVTVSS
VL: B4 VL with E1D, L4M, T28I, V29I, T30P, S84F, D106E
notes: full-length IgG from yeast
Turning to B5, the “Neut IC50 (µg/ml) subtype A” value in test [1] came out at 0.041 µg/mL. The “Neut IC50 (µg/ml) subtype B” value in test [2] worked out at 0.057 µg/mL. Further, the Kd amounted to 427 pM in test [3] and 476 pM in test [4].

B6: ADI-18953 (antibody, V domains shown)
VH: B4 VH with H33A, S35N, L54I, V68L, N84S, V93L
VL: B4 VL with I2T, V3T, S32N, G51D, D58G, I59V, D61A, S84F, D106E
notes: full-length IgG from yeast
For B6, the “Neut IC50 (µg/ml) subtype A” value in test [1] was 0.034 µg/mL. For the same molecule, the “Neut IC50 (µg/ml) subtype B” value in test [2] is 0.022 µg/mL. Also, the Kd was found to be 513 pM in test [3] and 421 pM in test [4].

B7: ADI-18939 (antibody, V domains shown)
VH: QVQLQQWGAGLLKPSETLSLTCAVYGGSFSGYSWSWIRQSPGKGLEWIGEINHRGSTNYNPSLKSRVTISVDTSKNQFSLKLSSVTAADTAVYYCAGTNYGEVNTSNQYFFGMDVWGQGTTVTVSS
VL: DIRLTQSPSSLSASVGDRVTITCRASQSITTYLNWYQQKPGKAPKLLIYAASNLESGVPSSFSGSGFGTDFTLTISSLQPDDFATYYCQQSYSAPLTFGGGTKVDIK
notes: full-length IgG from yeast; also called Antibody Number 292; Ab # 292
B7: the “Neut IC50 (µg/ml) subtype A” value in test [1] worked out at 0.018 µg/mL. Besides, the “Neut IC50 (µg/ml) subtype B” value in test [2] was found to be 0.038 µg/mL. The Kd in test [3] was determined as 574 pM; in test [4] it was 560 pM.

B8: ADI-18960 (antibody, V domains shown)
VH: QVQLQESGPGLVKPSETLSLTCSVSGGSITNVNYYWGWIRQPPGKGLEWIGSIYYNGNTYYNPSLQSRVTMSVDTSKNHFSLRLTSVTAADTAVYFCAREGPNWELLNAFDIWGQGTTVTVSS
VL: DIQVTQPPSVSVAPGQTARITCGGNNIGSKNVHWYQQKPGRAPVLVVYEDTHRPSGIPERFSGSNSGNTATLTISRVEAGDEADYYCQVWDTSSDHVVFGGGTKLTVL
notes: full-length IgG from yeast; also called Antibody Number 311; Ab # 311
As to B8, the “Neut IC50 (µg/ml) subtype A” value in test [1] is 0.034 µg/mL. Also, the “Neut IC50 (µg/ml) subtype B” value in test [2] was found to be 0.107 µg/mL. Also, the Kd in test [3] came out at 178 pM; in test [4], 183 pM.

B9: ADI-18880 (antibody, V domains shown)
VH: QVQLVQSGSEVKKPGAAVKVSCKASGYIFANFGVSWVRQAPGQGLEWMGWISAYNGNTNYAQKFQGRVIMTTDTSTSTAYMELRSLRSDDTAVYYCARDPPAYAATLMDVWGKGTTVTVSS
VL: EIVLTQSPLSLPVTLGQSASISCRSSQSLEHSDTNTYLTWYQQRPGQSPRRLLYKVSNRDSGVPDRFSGSGSGTDFTLKISRVEAEDVGVYYCMQGTHWPPTFGQGTKVDIK
notes: full-length IgG from yeast
Take B9: the “Neut IC50 (µg/ml) subtype A” value in test [1] was determined as 0.041 µg/mL. Moreover, the “Neut IC50 (µg/ml) subtype B” value in test [2] was found to be 0.055 µg/mL. In addition, the Kd came out at 255 pM in test [3] and 304 pM in test [4].

B10: ADI-18904 (antibody, V domains shown)
VH: B9 VH with Q1E, Q6E
VL: B9 VL with E1D, L4M, V109L, D110E
notes: full-length IgG from yeast; also called Antibody Number 259; Ab # 259
Take B10: the “Neut IC50 (µg/ml) subtype A” value in test [1] was determined as 0.018 µg/mL. Also, the “Neut IC50 (µg/ml) subtype B” value in test [2] came to 0.089 µg/mL. Also, the Kd is 251 pM in test [3] and 237 pM in test [4].

B11: ADI-18935 (antibody, V domains shown)
VH: QVQLQESGPGLVKPSQTLSLTCTVSGRLLSSGDYYWSWIRQSPGRGLEWIGYVYHSGTTSYNPSLKSRITMTVDTSKNQFNLRLTSVTAADTAVYYCARDLGYSSSSPAFYYGIDFWGPGTMVTVSS
VL: EIVLTQSPATLSLSPGQRATLSCRASQSVGNYLAWYQQKPGQAPRLLIYDASNRVTGIPARFSGSGSGTDFTLTISRLESEDFAVYYCQQRSNGVLTFGGGTKVDIK
notes: full-length IgG from yeast
Consider B11, for which, in test [1], the “Neut IC50 (µg/ml) subtype A” value came out at 0.779 µg/mL. Besides, the “Neut IC50 (µg/ml) subtype B” value in test [2] was determined as 0.355 µg/mL. For the same molecule, the Kd in test [3] turned out to be 660 pM; in test [4] it was 582 pM.

B12: ADI-18966 (antibody, V domains shown)
VH: QVQLVQSGGGVVQPGRSLRLSCAASGFTFRNYGMHWVRQAPGKGLEWVAAASYDGSSKYFADAVKGRFSISRDNTKNTLSLQMTSLRAEDTAVYYCARDPGVGSYYNVVGMDVWGQGTTVTVSS
VL: DIRLTQSPLSLPVTLGQPASISCRSSQSLVYSDGNTYLNWFQQRPGQSPRRLIYRVSHRDSGVPDRFSGSESGTDFTLKISRVEAEDVGVYYCMQGTHWPPTFGQGTKVEIK
notes: full-length IgG from yeast
Regarding B12, the “Neut IC50 (µg/ml) subtype A” value in test [1] worked out at 0.044 µg/mL. The “Neut IC50 (µg/ml) subtype B” value in test [2] amounted to 0.13 µg/mL. The dissociation constant (Kd) in test [3] amounted to 578 pM; in test [4], 562 pM.

B13: ADI-18958 (antibody, V domains shown)
VH: QVQLQESGAEVKMRGASVKVSCKASGYTFSHYGISWVRQAPGQGLEWMGFISAYNHNTKYAQTVQGRVTLSTDTSTSTAYMELRSLRPDDTAMYYCAREPPSDDAARLFDYWGQGTLVTVSS
VL: ETTLTQSPRSLPVTLGQPASISCRSSQSLVYSEGNTYLSWFQQRPGQSPRRLIYKVSNRDSGVPDRFSGSGSGTDFTLKISRVEAEDVGVYYCMQGTQWPVTFGQGTKVEIK
notes: full-length IgG from yeast
Consider B13, for which the “Neut IC50 (µg/ml) subtype A” value in test [1] came out at 0.587 µg/mL. In test [2], the “Neut IC50 (µg/ml) subtype B” value came to 3.36 µg/mL. In addition, the Kd in test [3] amounted to 286 pM; in test [4], 302 pM.

B14: ADI-18969 (antibody, V domains shown)
VH: QVQLVQSGPEVKKPGASVTVSCKASGYTFSHYGISWVRQAPGQGLEWMGWISAYHGQTNYAQNFQGRVTMTTDTSSNTAYMEVRSLRSDDTAVYFCARDVFSKTAARIFDYWGQGTLVTVSS
VL: B13 VL with T2I, T3V, R9L, V30E, E33D, G71Q, G96A, Q98D, V109L
notes: full-length IgG from yeast; also called Antibody Number 317; Ab # 317
As to B14, in test [1], the “Neut IC50 (µg/ml) subtype A” value was 0.035 µg/mL. Also, the “Neut IC50 (µg/ml) subtype B” value in test [2] came out at 0.187 µg/mL. Moreover, the Kd in test [3] came out at 303 pM; in test [4] it was 297 pM.

B15: ADI-18932 (antibody, V domains shown)
VH: QVQLQESGPGLVRPSQTLSLTCSASGAAINSGDYYWSWIRQAPGRGLEWIGSISNRGVTDYNPSLKSRVIISADTSKNQFSLRLTSVTATDTAVYYCARDLGTLAFDPYYYYGIDVWGQGTTVTVSS
VL: DIRMTQSPATLSLSPGERATLSCRASQSVSRHLAWYQQKPGQAPRLLIYDASYRVTGVPDRFSGSGSGTDFTLTISSLESEDFAIYFCQQRSTWPTFGQGTKVEIK
notes: full-length IgG from yeast
Take B15: the “Neut IC50 (µg/ml) subtype A” value in test [1] was found to be 0.184 µg/mL. The “Neut IC50 (µg/ml) subtype B” value in test [2] came out at 0.351 µg/mL. The values for the dissociation constant Kd in test [3] and in test [4] were 917 pM and 1390 pM, respectively.

B16: ADI-18928 (antibody, V domains shown)
VH: QVQLVQSGAEVKRPGSSVRVSCKASGGTFRKYAISWVRQARGQGLEWMGGIIPMSGPPSYAQKFQGRVTITADESTSTVYMELSSLRFEDTAVYFCARDIEWFVLMDPITSYYPMDVWGQGTTVTVSS
VL: QSVVTQEPSLTVSPGGTVTLTCGSSTGGVTSGHHTYWFQQKPGQAPRTLIYDTTNTHSWTPARFAGSLLGGKAALTLSGAQPEDEADYYCLLSYSGARPVFGGGTKLTVL
notes: full-length IgG from yeast
As for B16, in test [1], the “Neut IC50 (µg/ml) subtype A” value was determined as 0.034 µg/mL. In addition, the “Neut IC50 (µg/ml) subtype B” value in test [2] worked out at 0.062 µg/mL. The Kd in test [3] was 449 pM; in test [4], 515 pM.
